{"source": "patent US20210009963A1", "about": "(LYSENTECH, published 2021)", "molecular_target": "T1, wild type bacteriophage T7 (bacteriophage T7, UniProt P19726 1-345; P19727 1-398)", "T1 construct": "Whole phage particle without a homing peptide, used as the control; also called WT T7; wild type T7", "T1 sequence 1": "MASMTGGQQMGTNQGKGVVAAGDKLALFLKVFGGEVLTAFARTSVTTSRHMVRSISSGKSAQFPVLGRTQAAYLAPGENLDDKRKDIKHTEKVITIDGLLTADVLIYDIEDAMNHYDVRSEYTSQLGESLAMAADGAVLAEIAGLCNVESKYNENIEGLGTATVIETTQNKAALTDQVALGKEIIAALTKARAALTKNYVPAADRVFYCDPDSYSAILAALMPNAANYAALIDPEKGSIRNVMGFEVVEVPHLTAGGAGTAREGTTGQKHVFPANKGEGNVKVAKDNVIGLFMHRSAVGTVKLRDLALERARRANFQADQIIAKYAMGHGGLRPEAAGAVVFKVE", "T1 sequence 2": "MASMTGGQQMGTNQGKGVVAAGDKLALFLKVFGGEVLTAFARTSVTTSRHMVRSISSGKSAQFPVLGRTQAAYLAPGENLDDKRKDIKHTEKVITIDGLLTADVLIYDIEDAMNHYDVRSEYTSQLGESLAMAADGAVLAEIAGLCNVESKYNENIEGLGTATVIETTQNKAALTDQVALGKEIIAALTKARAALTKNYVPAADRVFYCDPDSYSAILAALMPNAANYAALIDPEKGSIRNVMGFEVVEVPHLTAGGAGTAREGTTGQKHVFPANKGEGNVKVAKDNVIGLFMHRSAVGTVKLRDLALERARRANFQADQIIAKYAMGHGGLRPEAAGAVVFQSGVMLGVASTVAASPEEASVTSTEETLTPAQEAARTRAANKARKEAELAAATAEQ", "assay": "confocal fluorescence microscopy of B16F10 cells, anti-T7 antibody staining after washing"}
{"binder": "grp78 on B16F10 mouse melanoma cells (receptor, whole, on cells; The assay was done on whole B16F10 cells; also called receptor for pep42; B16F10 cells) not shown", "values": [{"measurement": "binding result", "result": "no binding (tested: 1×10^7 PFU of phages)"}]}
